These results are taken from patent US5753483A, “Purified homogeneous UDP-GlcNAc (GalNAc) pyrophosphorylase” (priority 1995, dated 1998).

The subject of data set [1] is CC(=O)N[C@H]1[C@@H](OP(=O)(O)OP(=O)(O)OC[C@H]2O[C@@H](n3ccc(=O)[nH]c3=O)[C@H](O)[C@@H]2O)O[C@H](CO)[C@H](O)[C@@H]1O. As to the kind of experiment: purified protein, by the assay type. As to conditions: other: reverse direction, PP = 1 mM; 37.0 °C.
Data set [2] has as its system CC(=O)NC1C(OP(=O)(O)OP(=O)(O)OCC2OC(n3ccc(=O)[nH]c3=O)C(O)C2O)OC(CO)C(O)C1O. As to the kind of experiment: purified protein, by the assay type. As to conditions: other: reverse direction, PP = 1 mM; 37.0 °C.

Chain of Pyrophosphorylase (Sus scrofa) (chain, as listed by the source): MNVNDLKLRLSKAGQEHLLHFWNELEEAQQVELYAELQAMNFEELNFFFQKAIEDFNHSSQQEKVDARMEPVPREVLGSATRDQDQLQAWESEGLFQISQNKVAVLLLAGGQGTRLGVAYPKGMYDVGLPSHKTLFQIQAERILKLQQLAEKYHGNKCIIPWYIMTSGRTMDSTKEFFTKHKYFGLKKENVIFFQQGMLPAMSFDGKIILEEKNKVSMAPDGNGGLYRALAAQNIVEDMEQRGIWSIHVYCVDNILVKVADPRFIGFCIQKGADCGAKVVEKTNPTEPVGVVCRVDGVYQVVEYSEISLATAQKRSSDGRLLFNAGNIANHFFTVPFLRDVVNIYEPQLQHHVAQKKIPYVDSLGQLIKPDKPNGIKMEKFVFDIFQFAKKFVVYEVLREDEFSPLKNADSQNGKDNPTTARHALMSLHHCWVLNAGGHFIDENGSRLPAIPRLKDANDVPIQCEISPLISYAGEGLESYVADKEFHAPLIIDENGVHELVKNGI

Regarding Pyrophosphorylase (Sus scrofa), the Km in data set [1] was determined as 200 µM; in data set [2], 45 µM.
